The values below come from patent US20040223972A1 (FUNCTIONAL GENETICS, published 2004).

This assay addresses biotinylated peptide Bio-….

B1: purified TSG101 protein that contains only the UEV domain, Q99816 1-145 (protein)
chain: MAVSESQLKKMVSKYKYRDLTVRETVNVITLYKDLKPVLDSYVFNDGSSRELMNLTGTIPVPYRGNTYNIPICLWLLDTYPYNPPICFVKPTSSMTIKTGKHVDANGKIYLPYLHEWKHPQSDLLGLIQVMIVVFGDEPPVFSRP
In the case of B1, the equilibrium dissociation constant (Kd) turned out to be 2000 nM.
